Assay [1] concerns yeast-induced fever model in rats. The assay can be described thus: Yeast-induced SD rat fever model. It counts as in vivo, SD rats. The following applies: for Basal body temperature: rectal temperature before modeling, N=8; for Body temperature 2 hours after modeling / Body temperature 6 hours after modeling / Body temperature 8 hours after modeling / Body temperature 4 hours after modeling: then 20% yeast suspension 10 ml/kg s.c.; for Body temperature 2 hours after modeling: model group 37.5 ± 0.1; for Body temperature 6 hours after modeling / Body temperature 8 hours after modeling: model group 37.6 ± 0.1; for Body temperature 4 hours after modeling: model group 37.7 ± 0.1; for Effect on body temperature of model rats (in words): P<0.05 vs model group. As for the experimental part: • Animals: male SD rats, weight 230-260 grams; • Medicines: yeast (OXOID LP0021), Aspirin (SIGMA A2093), protein CF1; • Instruments: electronic balance (SARTORIUS BP121S), electronic clinical thermometer • (CITIZEN CT-513W). • Experiment grouping: • Normal control group; • Model group: yeast-induced fever model; • Positive control group: Aspirin 300 mg/kg group; • Protein CF1, 10 mg/kg group, 50 mg/kg group.
Preparation of experimental animals: After the experimental animals were adapted to the experimental environment (temperature 22° C.±2° C., relative humidity 50%±2%) for 1 day, the rectal temperature was measured for pre-adaptation at 8:00 in the morning and 15:00 respectively. The animals were fasted for 12 hours before the experiment with water provided ad libitum, and their bowels were emptied before the rectal temperature was measured. Before each temperature measurement, the probe of the electronic thermometer was applied with Vaseline and inserted 2 cm into the rat's rectum (a marker was made at 2 cm to ensure consistent insertion depth each time). The body temperature was recorded after readings stabilized.
(§1) Subcutaneous injection of dry yeast to replicate the rat fever model: Before model establishment, the body temperature of rats was measured. Qualified rats with body temperatures of 36.2-37.3° C. were selected and randomly grouped, with 8 rats per group. After oral administration of aspirin and different doses of protein CF1, 20% yeast suspension (10 ml/kg) was immediately subcutaneously injected. The normal control group was subcutaneously injected with the same volume of normal saline. The body temperatures of rats were monitored 2 hours later, once every 2 hours, for a total of 8 hours.
(§2) Based on the body temperature values measured at each time point on the day of the experiment, the mean, standard deviation and standard error of body temperature of rats in each group were calculated. The TTEST test was applied to compare the data of each group between groups, and P<0.05 was considered as a significant difference.

The subject of assay [2] is lipopolysaccharide (LPS) induced fever in rats. Briefly: Lipopolysaccharide (LPS)-induced SD rat fever model. The following applies: for Body temperature 2 hours after modeling / Body temperature 4 hours after modeling / Body temperature 6 hours after modeling / Body temperature 8 hours after modeling: then LPS 20 μg/kg i.p.; for Body temperature 2 hours after modeling / Body temperature 4 hours after modeling: model group 37.7 ± 0.1; for Body temperature 6 hours after modeling: model group 37.8 ± 0.2; for Body temperature 8 hours after modeling: model group 37.9 ± 0.2; for Effect on body temperature of model rats (in words): P<0.05 vs model group. In kind it is in vivo, SD rats. As for the experimental part: • Animals: Male SD rats, weight: 230-260 grams; • Drugs: lipopolysaccharide (LPS, SIGMA L-2880), aspirin (SIGMA A2093), protein CF1; • Instruments: electronic balance (SARTORIUS BP121S), electronic clinical thermometer (CITIZEN CT-513W). • Experiment grouping: • Normal control group; • Model group: lipopolysaccharide fever model group; • Positive control group: Aspirin 300 mg/kg group; • Protein CF1, 10 mg/kg group, 50 mg/kg group. • Method: the method for replicating the rat fever model via intraperitoneal injection of lipopolysaccharide. • Preparation of experimental animals: After the experimental animals were adapted to the experimental environment (temperature 22° C.±2° C., relative humidity 50%±2%) for 1 day, the rectal temperature was measured for pre-adaptation at 8:00 in the morning and 15:00 respectively. The animals were fasted for 12 hours before the experiment with water provided ad libitum, and their bowels were emptied before the rectal temperature was measured. Before each temperature measurement, the probe of the electronic thermometer was applied with Vaseline and inserted 2 cm into the rat's rectum (a marker was made at 2 cm to ensure consistent insertion depth each time). The body temperature was recorded after readings stabilized.
as §1, with “Intraperitoneal Injection” for “Subcutaneous injection”, “Lipopolysaccharide” for “dry yeast”, “lipopolysaccharide (20 μg/kg, 2” for “20% yeast suspension (10”, “intraperitoneally” for “subcutaneously”, “later and” for “later, once every 2 hours,”
as §2

For assay [3], the system named is ammonia water-induced cough in mice. The assay can be described thus: Antitussive effect on ammonia water-induced cough in mice. As to conditions: for Latency period: 1 hour before 10% ammonia water 10 seconds, solvent control 30.0 ± 1.8; for Latency period / Cough frequency: X ± SEM; for Cough frequency: within 2 minutes, 1 hour before 10% ammonia water, solvent control 65.5 ± 3.8. In kind it is in vivo, ICR mice. The protocol: • Animals: male ICR mice; • Drug and reagents: dextromethorphan hydrobromide, ammonia, 0.2% CMC-Na, protein CF1; • Instruments: Compressed nebulizer (403T), balance (XS105DU). • Experiment grouping: • Solvent control group; • Dextromethorphan 15 mg/kg group; • Protein CF1, 20 mg/kg group, 50 mg/kg group.
Model establishment and drug administration: Mice were orally administered dextromethorphan or varying doses of protein CF1 (administration volume: 10 ml/kg). The solvent control group were administered an equal volume of distilled water. After 1 hour, mice were placed in a sealed chamber and atomized with 10% ammonia water for 10 seconds. The cough latency period and cough frequency within 2 minutes were then observed and recorded.
Data processing: The oral administration time point, the nebulization exposure time point, the cough latency period, and the cough frequency within 2 minutes were recorded respectively. The cough latency period refers to the time interval of seconds required from the start of ammonia nebulization to the occurrence of coughing. The manifestation of coughing in mice is characterized by the contraction of their abdominal muscles (chest retraction) and the opening of their mouths wide. The mean and standard error of data in each group were calculated. The TTEST test was applied to compare the model group with the other groups. P<0.05 was considered as a significant difference.

Where [4] appears, read: aspirin 300 mg/kg oral, 2, 4, 6 and 8 hours after modeling.

Where a name gives a salt, the structure may show the parent alone.

As for `CC(=O)Oc1ccccc1C(=O)O` [Aspirin, aspirin, reference compound], in assay [1] (aspirin 300 mg/kg oral group), the Basal body temperature is 36.9 ± 0.1 °C. Further, in assay [1] (aspirin 300 mg/kg oral), the “Body temperature 2 hours after modeling” value turned out to be 36.9 ± 0.1 °C, the “Body temperature 6 hours after modeling” value was 37.2 ± 0.1 °C, the “Body temperature 8 hours after modeling” value is 37.1 ± 0.1 °C and the “Body temperature 4 hours after modeling” value is 37.1 ± 0.2 °C. For the same molecule, the “Effect on body temperature of model rats (in words)” value (“Effect … of model rats (in words)” below) in assay [1] (setting [4]) is recorded as “can effectively inhibit the increase of body temperature”. For the same molecule, in assay [2] (aspirin 300 mg/kg oral), the “Body temperature 2 hours after modeling” value amounted to 37.0 ± 0.2 °C, the “Body temperature 4 hours after modeling” value is 37.0 ± 0.2 °C, the “Body temperature 6 hours after modeling” value came out at 37.3 ± 0.1 °C and the “Body temperature 8 hours after modeling” value was 37.2 ± 0.1 °C. In assay [2] (setting [4]), the “Effect … of model rats (in words)” value is on record as “can effectively inhibit the increase of body temperature”.
In the case of `COc1ccc2c(c1)[C@]13CCCC[C@@H]1[C@H](C2)N(C)CC3` [Dextromethorphan, dextromethorphan hydrobromide, reference compound], in assay [3] (dextromethorphan 15 mg/kg oral), the Latency period came out at 45.4 ± 2.1 s and the Cough frequency is given as 36.8 ± 2.8. The “Effect on latency period and cough frequency (in words)” value in assay [3] (dextromethorphan 15 mg/kg oral, vs solvent control group, P<0.05) is “significant improvements in terms of latency period and cough frequency”.

B1: CF1: keratin with the amino acid sequence of SEQ ID NO. 1, expressed in E. coli; tested batch is the protein in Example 7 (protein)
chain: MSCRSYRVSSGHRVGNFSSCSAGIPRNLNRFRASSVSCRSGPSFRGIGGFGSRSVITFGSCSPRIAAVGPRPIRCGVGFGAGSGMAFGFGDGIGAGLGFGSGSYLGYGFGGPGFGYRVGGIGVPAAPSITPVTVNQSLLTPLNLEIDPNAQRVKRDEKEQIKTLNNRFASFIDKVRFLEQQNKLLETKWSFLQEQKGARSNLEPLFENYITNLQRQLDIANSERARFEAERNQLQDVLEGFKKKYEEEVVFRANAENEFVALKKDVDAAFLNKAELEANVDTLTQEIDFLKTLYAAEIQLLQSHISETSVIVKMDNSRDLDLDGIIAEVRAQYEEVAKRSRADAEAWYQTKYEEMRVTAGQHCDNLRNTREEINELTRLIQRLKAEIEHAKAQRARLEAAVAEAEQQGEAALNDAKCKLADLEAALQQAKQDMARQLREYQELMNAKLGLDIEIATYRRLLEGEEIRICEGVGPVNISVSSSRGGVVCGPESLVTSSTLSRSGVTFSGSSSIRPSGACGSSLGGVVVAGGDLLSAGSRGGSVLVGEACVPSVPCPLPTEGFSSCSGGRSSSLRFVSTTTSRRTKY
Turning to B1, the “Effect on body temperature of model animals (summary, in words)” value in assay [1] (8 hours post-modeling, dose not stated) is listed as “significant effect in reducing the elevated body temperature”. The Basal body temperature amounted to 36.9 ± 0.1 °C in assay [1] (CF1 10 mg/kg oral group); 36.8 ± 0.1 °C in assay [1] (CF1 50 mg/kg oral group); 36.8 ± 0.05 °C in assay [2] (CF1 50 mg/kg oral group, rectal temperature before modeling, N=8). The “Body temperature 2 hours after modeling” value in assay [1] (CF1 10 mg/kg oral) stood at 37.0 ± 0.1 °C; in assay [1] (CF1 50 mg/kg oral), 36.8 ± 0.1 °C; in assay [2] (CF1 10 mg/kg oral), 37.3 ± 0.1 °C; in assay [2] (CF1 50 mg/kg oral), 37.3 ± 0.2 °C. For the same molecule, the “Body temperature 6 hours after modeling” value in assay [1] (CF1 10 mg/kg oral) is 37.4 ± 0.1 °C; in assay [1] (CF1 50 mg/kg oral) it was 37.4 ± 0.1 °C; in assay [2] (CF1 10 mg/kg oral), 37.7 ± 0.2 °C; in assay [2] (CF1 50 mg/kg oral), 37.9 ± 0.2 °C. Also, the “Body temperature 8 hours after modeling” value in assay [1] (CF1 10 mg/kg oral) was found to be 37.2 ± 0.05 °C; in assay [1] (CF1 50 mg/kg oral) it was 37.4 ± 0.1 °C; in assay [2] (CF1 10 mg/kg oral) it was 37.9 ± 0.1 °C; in assay [2] (CF1 50 mg/kg oral), 37.9 ± 0.1 °C. Besides, the “Body temperature 4 hours after modeling” value amounted to 37.3 ± 0.1 °C in assay [1] (CF1 10 mg/kg oral), 37.2 ± 0.1 °C in assay [1] (CF1 50 mg/kg oral), 37.7 ± 0.2 °C in assay [2] (CF1 10 mg/kg oral) and 37.6 ± 0.2 °C in assay [2] (CF1 50 mg/kg oral). Besides, the “Effect … of model rats (in words)” value in assay [1] (CF1 10 mg/kg oral, 2 hours and 8 hours post-modeling) is recorded as “can significantly inhibit the temperature elevation”; in assay [2] (CF1 10 mg/kg oral, 2 hours after modeling) it was “can significantly reduce the body temperature”. The “Effect on body temperature of model rats (summary, in words)” value in assay [2] (2 hours post-modeling, dose not stated) is listed as “significant effect in reducing the body temperature”. In addition, the Latency period in assay [3] (CF1 20 mg/kg oral) is 34.6 ± 3.1 s; in assay [3] (CF1 50 mg/kg oral) it was 35.1 ± 4.6 s. In addition, in assay [3] (CF1 20 mg/kg oral, vs solvent control group), the “Effect on cough frequency (in words)” value is recorded as “statistically significant difference in term of cough frequency, but the effect is weak”. In addition, the “Antitussive effect (summary, in words)” value in assay [3] (dose not stated) is given as “can reduce the cough frequency”. Also, the Cough frequency in assay [3] (CF1 20 mg/kg oral) was 50.1 ± 2.8; in assay [3] (CF1 50 mg/kg oral), 56.4 ± 4.2.

These data come from patent publication US20260201002A1, “KERATIN CF1, PREPARATION METHOD THEREFOR, PHARMACEUTICAL COMPOSITION COMPRISING SAME, AND USE THEREOF” (INSTITUTE OF MATERIA MEDICA ,CHINESE ACADEMY OF MEDICAL …, priority 2023, published 2026).
